Patent US20240158505A1 (published 2024)
Residue numbers refer to the chain shown, from its start.

T1: Recombinant Human B7-H3 Fc chimera Protein (Rndsystem, Cat #1027-B3-100) (human, UniProt Q5ZPR3 29-245)
T1 chain: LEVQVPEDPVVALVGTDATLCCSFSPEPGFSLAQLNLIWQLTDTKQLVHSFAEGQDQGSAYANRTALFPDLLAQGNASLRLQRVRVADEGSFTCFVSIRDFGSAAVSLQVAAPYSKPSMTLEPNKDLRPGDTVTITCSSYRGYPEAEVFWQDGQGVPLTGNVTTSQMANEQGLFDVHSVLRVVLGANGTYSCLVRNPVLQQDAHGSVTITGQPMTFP

B1: #5 antibody (antibody, V domains shown)
VH: EVQLLESGGGLVQPGGSLRLSCAASGFTFSTYAMSWVRQAPGKGLEWVSAISGSGGSTLYADSVKGRFTISRDNSKNTLYLQMNSLRAEDTAVYYCARGGSATWAFDLWGQGTLVTVSS
VL: QSVLTQPPSASGTPGQRVTISCSGSSSNIGSNYVYWYQQLPGTAPKLLIYRNNQRPSGVPDRFSGSKSGTSASLAISGLRSEDEADYYCGTWDSSLSGVVFGGGTKLTVL
B2: #2 antibody (antibody, V domains shown)
VH: EVQLLESGGGLVQPGGSLRLSCAASGFTFSAYYMIWVRQAPGKGLEWVSITNPSGGVTSYAQKFQGRFTISRDNSKNTLYLQMNSLRAEDTAVYYCARVGGRGFDIWGQGTLVTVSS
VL: EIVLTQSPGTLSLSPGERATLSCHASQGISNYVAWYQQKPGQAPRLLIYDASNRATGIPDRFSGSGSGTDFTLTISHLEPEDFAVYYCQQSYSTLLTFGQGTKVEIK
B3: #6 antibody (antibody, V domains shown)
VH: EVQLLESGGGLVQPGGSLRLSCAASGFTFSTYAISWVRQAPGKGLEWVSSIYYSGYTHYNPSLESRFTISRDNSKNTLYLQMNSLRAEDTAVYYCARGYSGWMDVWGQGTLVTVSS
VL: QSVLTQPPSASGTPGQRVTISCGGNNIGSKSVHWYQQLPGTAPKLLIYDNNKRPSGVPNRFSGSKSGTSASLAISGLRSEDEADYYCAAWDDSLNVPVFGGGTKLTVL
B4: #9 antibody (antibody, V domains shown)
VH: EVQLLESGGGLVQPGGSLRLSCAASGFTFSSYAMNWVRQAPGKGLEWVSTISGSGGQTYYADSVKGRFTISRDNSKNTLYLQMNSLRAEDTAVYYCARWRSIWAFDYWGQGTLVTVSS
VL: B3 VL with G23S, G24D, N59D, A88G, A89T, N95S, V96G
B5: #3 antibody (antibody, V domains shown)
VH: EVQLLESGGGLVQPGGSLRLSCAASGFTFSTYYMTWVRQAPGKGLEWVSIINPRGGSTSYAEKFQGRFTISRDNSKNTLYLQMNSLRAEDTAVYYCARWNLGMDVWGQGTLVTVSS
VL: EIVLTQSPGTLSLSPGERATLSCRVSQSISSYLNWYQQKPGQAPRLLIYDASHRATGIPDRFSGSGSGTDFTLTISRLEPEDFAVYYCQQYYAPSVTFGQGTKVEIK
B6: #7 antibody (antibody, V domains shown)
VH: EVQLLESGGGLVQPGGSLRLSCAASGFTFSNFWIGWVRQAPGKGLEWVSWINPPGSITSYADSVKGRFTISRDNSKDTLYLQMNSLRAEDTAVYYCAREVGDVLDYWGQGTLVTVSS
VL: QSVLTQPPSASGTPGQRVTISCTGTSSDIGRYNYVSWYQQLPGTAPKLLIYRNTQRPSGVPDRFSGSKSGTSASLAISGLRSEDEADYYCGTWDSSLNAYVFGGGTKLTVL
B7: #4 antibody (antibody, V domains shown)
VH: EVQLLESGGGLVQPGGSLRLSCAASGFTFSSYGMHWVRQAPGKGLEWVSAISGSGTSIYYANSVKSRFTISRDNSKNTLYLQMNSLRAEDTAVYYCARGAGWFDYWGQGTLVTVSS
VL: QSVLTQPPSASGTPGQRVTISCSGSTSNIGSNTVNWYQQLPGTAPKLLIYGKNIRPNGVPDRFSGSKSGTSASLAISGLHSEDEADYYCQSYDSSLSGWVFGGGTKLTVL
B8: #8 antibody (antibody, V domains shown)
VH: EVQLLESGGGLVQPGSSLRLSCAASGFTFSSYWISWVRQAPGKGLEWVSEISPSGNTNYNPSLKSRFTISRDNSKNTLYLQMNSLRAEDTAVYYCAREVGDLLDYWGQGTLVTVSS
VL: QSVLTQPPSASGTPGQRVTISCSGSNIGNNYVSWYQQLPGTAPKLLIYQDSKRPSGVPDRFSGSKSGTSASLAISGLRSEDEADYYCLVWDRSSDHFVFGGGTKLTVL
B9: #1 antibody (antibody, V domains shown)
VH: EVQLLESGGGLVQPGGSLRLSCAASGFTFSSYAMSWVRQAPGKGLEWVSTITGSGGSTYYADSVKGRFTISRDNSKNTLYLQMNSLRAEDTAVYYCARYKSGAFDIWGQGTLVTVSS
VL: EIVLTQSPGTLSLSPGERATLSCRASQGIGNYLGWYQQKPGQAPRLLIYTASSLQSGIPDRFSGSGSGTDFTLTISRLEPEDFAVYYCQQGYSTPSWTFGQGTKVEIK

Each binder was assayed against B7-H3 expressed on the cell membrane (MCF-7, RKO and RKO/B7H3 cell lines) (UniProt Q5ZPR3) (assay: cell ELISA on fixed MCF-7 cells).
Chain of B7-H3 expressed on the cell membrane (MCF-7, RKO and RKO/B7H3 cell lines) (Q5ZPR3 29-534): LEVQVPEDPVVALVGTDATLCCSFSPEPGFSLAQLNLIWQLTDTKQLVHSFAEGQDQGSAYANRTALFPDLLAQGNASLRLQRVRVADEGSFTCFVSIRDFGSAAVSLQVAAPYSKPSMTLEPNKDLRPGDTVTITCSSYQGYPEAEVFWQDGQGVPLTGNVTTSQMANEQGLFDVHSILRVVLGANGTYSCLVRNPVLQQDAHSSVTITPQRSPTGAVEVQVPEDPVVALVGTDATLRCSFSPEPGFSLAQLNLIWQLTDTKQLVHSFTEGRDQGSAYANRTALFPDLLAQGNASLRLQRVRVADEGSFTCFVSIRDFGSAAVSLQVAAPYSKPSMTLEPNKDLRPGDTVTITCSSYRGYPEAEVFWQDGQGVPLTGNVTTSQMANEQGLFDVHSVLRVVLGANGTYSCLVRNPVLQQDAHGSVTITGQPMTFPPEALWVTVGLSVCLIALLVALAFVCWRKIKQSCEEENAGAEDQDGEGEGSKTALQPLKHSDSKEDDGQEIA

Row | EC50 [nM] | Binder
1 | 1.74 | B1
2 | 0.061 | B2
3 | 0.234 | B3
4 | 0.322 | B4
5 | 0.197 | B5
6 | 1.01 | B6
7 | 0.502 | B7
8 | 0.159 | B8
9 | 0.605 | B9

These binders were tested against B7-H3 expressed on the cell membrane (MCF-7, RKO and RKO/B7H3 cell lines) (UniProt Q5ZPR3) (assay: cell ELISA on fixed RKO/B7H3 cells).

Row | EC50 [nM] | Binder
10 | 0.091 | B1
11 | 0.036 | B2
12 | 0.065 | B3
13 | 0.05 | B4
14 | 0.065 | B5
15 | 0.187 | B6
16 | 0.042 | B7
17 | 0.06 | B8
18 | 0.015 | B9

Molecular target: T1, Recombinant Human B7-H3 Fc chimera …
Experiment: ELISA

Row | EC50 [nM] | Binder
19 | 1.2 | B1
20 | 0.42 | B2
21 | 1.86 | B3
22 | 1.1 | B4
23 | 1.1 | B5
24 | 1.8 | B6
25 | 0.55 | B7
26 | 0.63 | B8
27 | 0.18 | B9
